Source: patent publication US20210079087A1 (REMD BIOTHERAPEUTICS, published 2021)

B1: REMD 155.1 (antibody, human IgG4 S228P, kappa, V domains shown)
VH: QVQLVQSGAEVKKPGASVKVSCKASGFTFTDYYMNWVRQAPGQGLEWMGDINPKNGGTIFNQNFRGRVTMTRDTSISTAYMELSRLRSDDTAVYYCARSILTGPFYFDYWGQGTLVTVSS
VL: DIVMTQSPDSLAVSLGERATINCKASQSVSFAGTGLMHWYQQKPGQQPKLLIYRASNLEAGVPDRFSGSGSGTDFTLTISSLQAEDVAVYYCQQTMEYPTFGGGTKLEIKR
notes: Humanized antibody derived from 23A4D8; also called IgG 2 (H1/L2); H1 + L2
B2: REMD 155.2 (antibody, human IgG4 S228P, kappa, V domains shown)
VH: QVQLVQSGAEVKKPGASVKVSCKASGFTFTDYYMNWVRQAPGQGLEWMGDINPKNGGTIFNQNFRGRVTMTRDTSISTAYMELSRLRSDDTAVYYCARSILTGPFYFDYWGQGTLVTVSS
VL: DIVLTQSPDSLAVSLGERATINCKASQSVSFAGTGLMHWYQQKPGQQPKLLIYRASNLEAGVPDRFSGSGSGTDFTLTISSVQAEDVAVYYCQQTMEYPTFGGGTKLEIKR
notes: Humanized antibody derived from 23A4D8; also called IgG 4 (H1/L4); H1 + L4
B3: REMD 155 (antibody, human IgG4 S228P, kappa, V domains shown)
VH: QVQLVQSGAEVKKPGASVKVSCKASGFTFTDYYMNWVRQAPGQGLEWMGDINPKNGGTIFNQNFRGRVTMTRDTSISTAYMELSRLRSDDTAVYYCARSILTGPFYFDYWGQGTLVTVSS
VL: DIVMTQSPDSLAVSLGERATINCKASQSVSFAGTGLMHWYQQKPGQPPKLLIYRASNLEAGVPDRFSGSGSGTDFTLTISSLQAEDVAVYYCQQTMEYPTFGGGTKLEIKR
notes: Humanized antibody derived from 23A4D8; also called IgG 1 (H1/L1); H1 + L1
B4: 22E2G4 (antibody, mouse IgG1, V domains shown)
VH: QVQLQQPGAELVMPGTSVRLSCKASGYTFTSYWMHWVKQRPGQGLEWIGEIDPSDTYTNYNPKFKGKATLTVDKSSSTAYMQFTSLTSEDSAVYYCARSGIYYDYYEDYWGQGTTLTVSS
VL: DVVMTQTPLSLPVSLGDQASISCRSSQILLHSNGNTYLHWYLQKPGQSPKLLIYKVSNRFSGVPDRFSGSGSGTDFTLKISRVEAEDLGVYFCSQSVHVPTFGGGTKLEIK
notes: amino acids 1-19 are stated as the leader; also called A3
B5: 26G11B11 (antibody, mouse IgG1, V domains shown)
VH: QVQLQQPGAELVMPGASVKLSCKAAGYTFTSYWMHWVKQRPGQGLEWIGEIDPSDSYTNYNQKFKGKATLTVDKSSSTAYMQLSSLTSEDSAVYYCARSGIYYDYYEDYWGQGTTLTVSS
VL: DVVMTQTPLSLPVSLGDQASISCRSSQSLVHSNGNTYLHWYLQKPGQSPKLLIYKVSNRFSGVPDRFSGSGSGTDFTLKISRVEAEDLGVYFCSQSIHVPTFGGGTKLEIK
notes: amino acids 1-19 are stated as the leader; also called A6
B6: 24F11E4 (antibody, mouse IgG1, V domains shown)
VH: QVQLQQPGAELVMPGASVRLSCKASGYTFTNYWIHWVKQRPGQGLEWIGEIDPSDTFTNYSPKFKGKATLTVDKSSSTAYMQLTGLTSEDSAVYFCARSGIYYDYYEDYWGQGTTLTVSS
VL: DVVMTQTPLSLPVSLGDQVSISCRSSQILLHSNGNTYLHWYLQKPGQSPKLLIYKVSNRFSGVPDRFSGSGSGTDFTLKISRVEADDLGVYFCSQSVHVPTFGGGTKLEIK
notes: amino acids 1-19 are stated as the leader; also called A5
B7: 23A4D8 (antibody, mouse IgG2a, V domains shown)
VH: EVQLQQSGPELVKPGASVKISCKASGFTFTDYYMNWMKQSHGKSLEWIGDINPKNGGTIFNQNFRGKATLTVDKSSSTAYMELRSLTSEDSAVYYCARSILTGPFYFDYWGQGTTLTVSS
VL: DIVLTQSPASLAVSLGQRAIISCKASQSVSFAGTGLMHWYQQKSGQQPKLLISRASNLEAGVPTRFSGSGSRTDFTLNIHPVEEDDAATYYCQQTMEYPTFGGGTKLEIK
notes: also called Murine 23A4D8; parental
B8: chimeric IgG4 (murine-human chimeric antibody derived from murine antibody A4 and human IgG4) (antibody, V domains shown)
VH: EVQLQQSGPELVKPGASVKISCKASGFTFTDYYMNWMKQSHGKSLEWIGDINPKNGGTIFNQNFRGKATLTVDKSSSTAYMELRSLTSEDSAVYYCARSILTGPFYFDYWGQGTTLTVSS
VL: DIVLTQSPASLAVSLGQRAIISCKASQSVSFAGTGLMHWYQQKSGQQPKLLISRASNLEAGVPTRFSGSGSRTDFTLNIHPVEEDDAATYYCQQTMEYPTFGGGTKLEIKR
notes: also called Chimeric Ab
B9: 4H11C7 (antibody, mouse IgG1, V domains shown)
VH: QVTLKESGPGILQPSQTLSLTCSFSGFSLNTFGMGVDWIRQPSGKGLEWLAHIWWDDDKYYNPALESRLTISKDASKNQVFLKIANVDTADTATYYCSRRELGPYFFDYWGQGTTLTVSS
VL: GVLMTQTPLSLPVSLGDQASISCRSSQSIVHSNGNTYLEWYLQKPGQSPKLLIYKVSNRFSGVPDRFSGSGSGTDFTLKINRVEAEDLGVYYCFQGSHFPYTFGGGTKLEID
notes: amino acids 1-19 are stated as the leader; also called A1
B10: 8A5G4 (antibody, V domains shown)
VH: QVELKESGPGLVAPSQSLSITCTVSGFSLTSYGVYWVRQPPGKGLEWLVVIWSDGTTTYNSALKSRLSISKDNSKSQVFLKMNSLQTDDTAMYYCARQGDNYSYAVDYWGQGTAVTVSS
VL: DVVMIQIPLSLPVSLGDQASISCRSSQSLVHSNGNTYLHWYLQKPGQSPKLLIYKVFNRFSGVPDRFSGSGSGTDFTLKISRVEAEDLGVYFCSQSTHAPLTFGAGTKLELK
notes: amino acids 1-19 are stated as the leader; also called A2

Tests used:
human IL-17A [1] = target: T1, human IL-17A (human, UniProt Q16552 24-155); experiment: cell-based or functional assay
human IL-17A [2] = target: T1, human IL-17A; experiment: SPR, Biacore 8k; antibody amine-coupled to the chip, IL-17A as analyte
Description: (§1) The recombinant IgGs secreted to the medium and were purified using protein A affinity chromatography. […] Antibodies were immobilized on the sensor chip through amine coupling method. […] The data of dissociation (kd) and association (ka) rate constants were obtained using Biacore 8k evaluation software. The equilibrium dissociation constants (KD) were calculated from the ratio of kd over ka.

human IL-17A [3] = target: T1, human IL-17A; experiment: ELISA, binding to human IL-17A
human IL-17A [4] = target: T1, human IL-17A; experiment: cell-based or functional assay; remark: listed apart in the source
cyno primate IL-17A = target: T2, cyno primate IL-17A (cyno primate, UniProt A0A2K5TTB0 24-155); experiment: ELISA, binding to cyno IL-17A
T2 construct: Antigen of the primate crossreactivity ELISA; construct not described; also called Cy IL-17

murine IL-17A = target: T3, murine IL-17A (murine, UniProt Q62386 26-158, limits assumed); experiment: murine IL-17A crossreactivity ELISA
T3 construct: Antigen of the murine IL-17A crossreactivity ELISA; construct not described; also called mouse IL-17A
T3 sequence (looked up): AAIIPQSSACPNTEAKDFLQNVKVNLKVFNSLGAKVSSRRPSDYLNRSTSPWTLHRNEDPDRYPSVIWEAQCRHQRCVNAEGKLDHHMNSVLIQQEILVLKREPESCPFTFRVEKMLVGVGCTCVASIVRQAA

human IL-17A [5] = target: T1, human IL-17A; experiment: IL-17A/IL-17R blocking ELISA
human IL-17A [6] = target: T1, human IL-17A; experiment: SPR, Biacore T200; antibody amine-coupled to the chip, IL-17A as analyte
Description: The data of dissociation (kd) and association (kₐ) rate constants were obtained using Biacore T200 evaluation software. The equilibrium dissociation constants (KD) were calculated from the ratio of kd over kₐ.

human IL-17A [7] = target: T1, human IL-17A; experiment: SPR, Biacore 8k; antibody amine-coupled to the chip, IL-17A as analyte; first of two Chimeric Ab rows (ka 1.94E+06)
Description: as §1

human IL-17A [8] = target: T1, human IL-17A; experiment: SPR, Biacore 8k; antibody amine-coupled to the chip, IL-17A as analyte (second, unlabelled row)
Description: as §1

human IL-17A [9] = target: T1, human IL-17A; experiment: SPR, Biacore 8k; antibody amine-coupled to the chip, IL-17A as analyte (second, unlabelled row); second, unlabelled row under Chimeric Ab
Description: as §1

T1 sequence (Q16552 24-155 limits assumed): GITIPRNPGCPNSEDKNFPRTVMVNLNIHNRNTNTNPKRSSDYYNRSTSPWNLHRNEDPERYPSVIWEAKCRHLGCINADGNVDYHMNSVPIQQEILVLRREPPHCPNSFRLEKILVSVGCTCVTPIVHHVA
T2 sequence (A0A2K5TTB0 entry or part of it): as the sequence (Q16552 24-155 limits assumed) above, with T3A, P8S, N34S, I77V, N78K, P104R counted along it

Binder	IC50 (nM), NIH3T3 in vitro functional assay described in Example 1 (IL-6 production) (human IL-17A [1]) [nM]	Kd (human IL-17A [2]) [nM]	koff (human IL-17A [2]) [s⁻¹]	kon (human IL-17A [2]) [M⁻¹ s⁻¹]	EC50 (human IL-17A [3]) [nM]	IC50 (nM), IL6 production by TNFα-primed NIH3T3 cells stimulated with human IL-17A (human IL-17A [4]) [nM]	EC50 (cyno primate IL-17A) [nM]	binding result (murine IL-17A)	IC50 (human IL-17A [5]) [nM]	further results
B1	0.995	≤ 0.00361	≤ 1e-05	2.77e+06						
B2	0.975	≤ 0.00346	≤ 1e-05	2.89e+06						
B3	0.88	0.00552	1.35e-05	2.45e+06						
B4					0.15	0.534	0.013	no binding	3.04	
B5					0.12	0.544	0.012	no binding	2.19	
B6					0.16	0.138	0.01	no binding	2.15	
B7	0.703	0.00489	1.22e-05	2.5e+06	0.08	0.581	0.004	no binding	2.07	
B8		0.00515		1.94e+06						Kd (human IL-17A [6]): ≤ 0.00493 nM; koff (human IL-17A [6]): ≤ 1e-05 s⁻¹; kon (human IL-17A [6]): 2.03e+06 M⁻¹ s⁻¹; koff (human IL-17A [7]): ≤ 1e-05 s⁻¹; Kd (human IL-17A [8]): 0.00439 nM; koff (human IL-17A [8]): 1e-05 s⁻¹; kon (human IL-17A [9]): 2.28e+06 M⁻¹ s⁻¹
B9					0.19	0.953	0.016	no binding	2.44	
B10					0.1	0.47	0.008	no binding	1.65	
